Ends that are not written are not given here.
Molecular target: T1, recombinant His6-tagged wild-type DJ-1 (UniProt Q99497 1-189)
T1 construct: DJ-1 (PARK7), wild type, expressed from the plasmid pET3a-His-DJ1; No removal of the His6 tag is described; The plasmid pET3a-His-DJ1 (Addgene 51488) tells the exact construct; also called PARK7; recombinant DJ-1; source: E. coli Rosetta (DE3), purified (Ni2+-NTA agarose, desalting)
T1 sequence (looked up): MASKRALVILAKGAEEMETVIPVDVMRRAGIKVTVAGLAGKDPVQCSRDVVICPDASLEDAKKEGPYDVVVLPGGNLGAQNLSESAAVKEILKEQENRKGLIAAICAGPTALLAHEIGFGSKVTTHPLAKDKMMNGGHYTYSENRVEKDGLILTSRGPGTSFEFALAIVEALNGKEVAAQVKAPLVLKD
Assay: pull-down; biotinylated H3 (1-18) peptide, glycated or not, incubated with recombinant DJ-1 at 4 °C for 2 h; peptide pulled down on BSA-blocked streptavidin magnetic beads, washed 3 times with 1x PBS pH 7.4, boiled; western blot with anti-DJ-1
Conditions: both partners purified

B1: glycated (MGO-treated) biotinylated H3 N-terminal tail peptide (residues 1-18) (peptide, UniProt Q71DI3 2-19, looked up)
peptide: ARTKQTARKSTGGKAPRK
modifications: not fully specified (N-terminus, C-terminus); also: MGO glycation adducts, sites not given here
notes: histone H3 N-terminal tail, residues 1-18; The methods speak of 'N-terminal biotinylated H3 peptides', the results of a C-terminal biotin; also called glycated H3 tail; glycated biotin-H3 tail; source: synthetic peptide (Fmoc-SPPS, RP-HPLC purified), treated with MGO at 1:3 peptide:MGO, 37 °C, 30 min; not shown: biotin, C-terminal, kept
B1: binds.
